Laboratory results from the supplement of paper PMC9170038.

Tested on: MS2 coat protein
Test: apparent KD of MS2 coat protein; designed switch direction (-1 OFF switch, 1 ON switch): -1; higher = weaker reporter binding
Outline: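 The apparent KD reported per design is the median over clusters of curve fits to normalised cluster fluorescence. The RNA switches were transcribed on Illumina chips by stalled E. coli RNA polymerase. SNAP-549-labelled MS2 coat protein was titrated from 0.7 or 1.5 nM, doubling up to 3 µM, in Tris-HCl pH 7.5 buffer containing KCl, MgCl2, BSA, DTT, tRNA and Tween-20, with no input, 200 uM small-molecule ligand, or an oligonucleotide input.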

[1] = input ligand: microRNA oligo, concentration not stated
[2] = Eterna round: R95, input ligand: microRNA oligo, concentration not stated
[3] = Eterna round: R95, input ligand: FMN 200 uM
[4] = Eterna round: R95, input ligand: none

Sequence	apparent KD of MS2 coat protein [1]	apparent KD of MS2 coat protein [2]	apparent KD of MS2 coat protein [3]	apparent KD of MS2 coat protein [4]	apparent KD of MS2 coat protein (input ligand: FMN 200 uM)	apparent KD of MS2 coat protein (input ligand: none)
ACAUGUAAUGUAGGAUAUUUUACACAUGAGGAUCACCCAUGUGACCAGAGGCUUUGCUAUGAGUAAAAGAAGGGUAUGUACAUG [Ex NG2 #59] (Eterna round: R96, puzzle: Exclusion NG 2)	51.5 nM					
GACUGCCGAGGAUAUACAUGAGGAUCACCCAUGUGCUUCAGCAUUUUUUAAUGCAUGGGUAGAAGGCGGUAGUC [LRO-Excl3-13] (puzzle: Exclusion 3)		29.6 nM				
UACCGGCGGACCGAGGCUUUUUGCUCGUCUUAUACUACAACAUGAGGAUCACCCAUGUGGUGGUGGUCCGUUGUAGU [JL ViennaUCT Bitein mod 5] (puzzle: Sensor v3, turn-off variant 2)		6.09 nM	21.7 nM	16.2 nM		
AAGUACCGUCACGAUAGUGAUGGUACAACUAGCAUGUAAACAUGAGGAUCACCCAUGUCCUCAAUUGCUCGUCUUAU [Sensor 3 - 69] (puzzle: Sensor v3, turn-off variant 2)		829 nM	740 nM	814 nM		
AAGUAGUGUGUGAGGAUAUUGGUGGAAUGACACAUUAAGAAGGUACAUGAGGAUCACCCAUGUGGGUAAACACG [Brourd's EX4 #23] (Eterna round: R97, puzzle: Brourd's mod of Exclusion 4)					137 nM	146 nM
UGUACUAUGCGAGCUGACUUGCGUAGUGCAGCAGGUGAAACAUGAGGAUCACCCAUGUCCUCAUUUGCUCGUCUUAU [SL-sv3-2.02 JL mod] (puzzle: Sensor v3, turn-off variant 2)		599 nM	47.7 nM	41.6 nM		
CGAUGUGGAGUGAGGAUAUCGUGUUCGAAAGAACGUGAGAAGGCACAUGAGGAUCACCCAUGUGAUACAUGUCG [Omei Ex4B A16] (Eterna round: R97, puzzle: Brourd's mod of Exclusion 4)					92.2 nM	24.6 nM
GAUUAUGCGAGCUUUAGGGACAUGAGGAUCACCCAUGUUCGUCUUAUUAGUCUAGAUACGCUGACAUACCUAAAUCU [JMF 96] (puzzle: Sensor v3, turn-off variant 1)		18.5 nM	14.5 nM	15.8 nM		
GAAAAGGUAGGAUAUACGAAAAAAAAGGUUAGAAAAAAAACACAUGAGGAUCACCCAUGUAGAAGGACCAAAAG [salish99_ex2_r3_067] (puzzle: Exclusion 2)		21.8 nM	17.4 nM	17.8 nM		
AAUACAAGCUAUUGAUCCCACAUGAGGAUCACCCAUGUAGCUGGCGGUGACACCUCCAUUACGAUAGCUCGUCUUAU [Sensor-V1 #56] (Eterna round: R97, puzzle: Sensor, turn-off variant 1)					796 nM	1670 nM
CCUCGACGGUAGGAUAUCGUCAAACUAUUGUGAUGAGAAGGACUGACAUGAGGAUCACCCAUGUUAACGUGAUA [Exclusion 6 - 7:b] (puzzle: Exclusion 6)		17.1 nM				
AGUAGAUCAGGAUAUACGUGAAAGGUCAAAGUGUCCAAUAUACAUGAGGAUCACCCAUGUAGAAGGGAUCUACA [Ex2 Design 116: Not so Super Stable 3] (Eterna round: R96, puzzle: Exclusion 2)	22.1 nM				168 nM	27.4 nM
GAGAGAGACAUAGGAUAUUCACCCACACAUGAGGAAGAAGGAUGUAGACAUGAGGAUCACCCAUGUGGAUCACCCAUGUUUGUG [All by luck] (Eterna round: R96, puzzle: Exclusion NG 1)	12.1 nM				22 nM	24.7 nM
GCAUAUGAUGUAGGAUAUGCGAGACAUGAGGAUCACCCAUGUGAGGGAAGGAGAAGGAGAAGAGAGUAGAAGGAUAGAGUGUGA [Default title] (Eterna round: R96, puzzle: Exclusion NG 2)	85.3 nM				83.8 nM	85.1 nM
